Measurements: IntAct's records for PubMed 22778397

B1: RNA-binding protein FUS (Homo sapiens), P35637 (parent)
chain: MASNDYTQQATQSYGAYPTQPGQGYSQQSSQPYGQQSYSGYSQSTDTSGYGQSSYSSYGQSQNTGYGTQSTPQGYGSTGGYGSSQSSQSSYGQQSSYPGYGQQPAPSSTSGSYGSSSQSSSYGQPQSGSYSQQPSYGGQQQSYGQQQSYNPPQGYGQQNQYNSSSGGGGGGGGGGNYGQDQSSMSSGGGSGGGYGNQDQSGGGGSGGYGQQDRGGRGRGGSGGGGGGGGGGYNRSSGGYEPRGRGGGRGGRGGMGGSDRGGFNKFGGPRDQGSRHDSEQDNSDNNTIFVQGLGENVTIESVADYFKQIGIIKTNKKTGQPMINLYTDRETGKLKGEATVSFDDPPSAKAAIDWFDGKEFSGNPIKVSFATRRADFNRGGGNGRGGRGRGGPMGRGGYGGGGSGGGGRGGFPSGGGGGGGQQRAGDWKCPNPTCENMNFSWRNECNQCKAPKPDGPGGGPGGSHMGGNYGDDRRGGRGGYDRGGYRGRGGDRGGFRGGRGGGDRGGFGPGKMDSRGEHRQDRRERPY

Variants of: B1
Conditions: with TNPO1, Q92973-2
TNPO1, Q92973-2, sequence (Q92973 9-898): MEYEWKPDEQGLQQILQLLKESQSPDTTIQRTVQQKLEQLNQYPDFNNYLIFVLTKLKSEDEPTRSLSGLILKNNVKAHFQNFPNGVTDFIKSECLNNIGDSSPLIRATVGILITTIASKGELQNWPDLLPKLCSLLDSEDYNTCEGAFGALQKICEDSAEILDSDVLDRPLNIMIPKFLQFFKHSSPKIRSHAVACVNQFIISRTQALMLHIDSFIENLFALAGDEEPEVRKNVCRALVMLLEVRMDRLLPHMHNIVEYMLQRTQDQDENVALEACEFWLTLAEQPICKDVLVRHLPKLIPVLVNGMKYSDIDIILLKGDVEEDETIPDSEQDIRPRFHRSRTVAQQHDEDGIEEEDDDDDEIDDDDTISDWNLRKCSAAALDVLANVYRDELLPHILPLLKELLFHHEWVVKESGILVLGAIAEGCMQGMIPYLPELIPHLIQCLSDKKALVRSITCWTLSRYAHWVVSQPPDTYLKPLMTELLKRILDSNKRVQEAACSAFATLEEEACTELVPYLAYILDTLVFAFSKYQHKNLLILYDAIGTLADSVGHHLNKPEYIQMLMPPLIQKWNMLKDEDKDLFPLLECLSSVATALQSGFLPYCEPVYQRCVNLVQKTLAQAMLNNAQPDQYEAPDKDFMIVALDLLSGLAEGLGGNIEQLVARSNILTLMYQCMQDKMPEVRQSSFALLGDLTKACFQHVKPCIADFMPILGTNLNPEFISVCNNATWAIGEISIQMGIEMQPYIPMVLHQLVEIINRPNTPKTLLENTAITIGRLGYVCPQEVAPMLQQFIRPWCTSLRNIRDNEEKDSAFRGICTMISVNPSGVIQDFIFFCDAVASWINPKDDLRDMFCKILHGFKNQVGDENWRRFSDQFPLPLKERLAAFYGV

Variant | effect of a mutation on the interaction
P525L | decreasing interaction strength
P525A | decreasing interaction strength
R521C | decreasing interaction strength
P525A;Y526A | decreasing interaction strength
R518A | decreasing interaction strength
H517Q | decreasing interaction strength
R524S | decreasing interaction strength
R514A;R518A | decreasing interaction strength
R522A | decreasing interaction strength
R521A;R522A | decreasing interaction strength
P508A;G509A;K510A;M511A | decreasing interaction strength
R514A;R518A;R521A;R522A | disrupting interaction strength
Y526A | decreasing interaction strength
